The MegaScale stability set (Tsuboyama et al. 2023)

B1: EEHEE_rd4_0363 (parent)
chain: VTVDIKGMEYHFDNPEEAKKFAERMAKELGGELKVENGTLKVE

Variants of: B1
Test: folding stability dG (cDNA display proteolysis); higher = more stable
Conditions: PBS, room temperature

Folding stability dG [kcal/mol], by site and new letter:
E16: V 1.74 | I 1.71 | L 1.65 | S 1.58 | P -0.084 | Q 1.67 | K 1.33 | F 1.7 | W 1.98 | A 1.78 | N 1.41 | Y 1.79 | C 2.17 | T 1.7 | G 1.24 | H 1.63 | M 1.71 | R 1.27 | D 2.02
N14: V 0.902 | K 1.08 | E 1.18 | C 1.81 | Y 0.952 | D 2.33 | L 1.02 | W 0.812 | T 2.07 | H 1.3 | A 0.941 | M 0.77 | G 1.08 | S 2.11 | F 0.914 | Q 0.996 | R 1.15 | I 0.929
K20: G 1.18 | S 1.95 | E 2.08 | T 1.67 | R 2.18 | V 1.73 | H 1.53 | C 2.28 | F 1.62 | I 2.08 | Y 1.57 | P -0.999 | L 2.06 | A 2.42 | N 1.77 | Q 2.01 | D 1.7 | M 1.88 | W 1.67
A22: Y 1.06 | G 0.968 | R 1.05 | Q 0.746 | I 1.5 | S 0.388 | T 0.578 | W 1.53 | C 1.54 | D -0.23 | V 1.26 | M 1.39 | N 0.039 | L 1.48 | E 0.571 | F 1.23 | K 0.798 | H 0.228
A18: C 1.03 | E -0.431 | Y 0.753 | Q -0.376 | H -0.269 | T -0.52 | M 0.379 | G 1.46 | I -0.262 | W 0.824 | V -0.372 | R -0.072 | S -0.064 | K -0.683 | F 0.719 | L 0.471
K6: C 3.13 | T 1.5 | V 1.81 | D 2.92 | W 2.62 | G 2.68 | H 2.74 | A 2.53 | S 2.31 | I 1.81 | L 2.96 | E 2.26 | Y 2.87 | F 3.4 | R 2.17 | Q 2.34 | M 3.32 | N 2.84 | P 0.366
E17: Q 1.5 | G 0.569 | Y 0.905 | V 1.17 | S 1.38 | M 1.39 | H 1.2 | I 1.16 | N 1.11 | K 1.16 | R 0.908 | L 1.31 | W 0.794 | T 1.23 | A 1.7 | F 0.922 | D 2.08 | P -0.343 | C 2.09
E9: L 3.44 | D 0.904 | C 3.28 | P 1.47 | Y 2.6 | W 2.25 | F 2.66 | S 2.32 | H 2.51 | K 3.05 | R 2.9 | M 2.92 | V 2.93 | G 1.26 | N 1.71 | I 3.25 | Q 2.69 | A 1.99 | T 2.55
M8: T 2.26 | K 2.44 | G 0.564 | Q 2.05 | Y 2.06 | F 2.11 | A 1.54 | N 1.58 | H 1.99 | V 2.52 | E 1.63 | W 1.78 | P -0.136 | I 2.46 | R 2.41 | C 2.23 | L 1.93 | S 1.55 | D 1.24
G7: C 1.72 | K 0.294 | N 0.745 | Q 0.441 | A 0.278 | W 0.811 | Y 0.918 | I 0.499 | V 0.407 | R 0.237 | F 0.855 | D 0.499 | L 0.238 | T 0.445 | P 0.309 | M 0.304 | E 0.306 | S 0.507 | H 0.716
P15: T 1.52 | Y 3.25 | A 2.19 | S 1.64 | G 1.39 | W 3.73 | Q 1.75 | N 1.41 | M 2.86 | H 2.05 | C 2.33 | I 2.58 | R 1.45 | D 1.58 | K 1.45 | L 2.6 | V 2.17 | E 2.12 | F 3.22
E23: C 2.35 | D 1.58 | P -0.639 | R 1.16 | H 1.11 | N 0.999 | S 1.08 | T 1.31 | L 1.89 | K 1.34 | V 1.55 | Y 1.5 | W 1.4 | Q 1.65 | F 1.27 | I 1.87 | G 0.124 | M 1.9 | A 1.48
K19: N 1.38 | L 2.74 | W 3.27 | R 2.65 | V 1.96 | T 1.71 | E 1.32 | I 2.38 | M 2.67 | D 0.524 | F 2.67 | Q 2.17 | G 0.835 | S 1.35 | A 1.65 | H 1.98 | Y 2.87
Y10: P -0.055 | D -0.462 | N -0.275 | C 1.77 | I 1.05 | W 1.56 | G -0.912 | K 0.191 | M 0.781 | E -0.466 | H 0.908 | Q 0.239 | T 0.289 | S -0.033 | A 0.161 | F 1.99 | R 0.383 | L 0.741 | V 0.768
H11: L 1.55 | I 1.77 | T 1.77 | W 2.26 | C 2.21 | E 0.894 | R 1.87 | V 1.84 | A 1.16 | Y 2.36 | F 2.13 | D 0.422 | P 0.291 | Q 1.39 | M 1.54 | S 1.33 | K 1.73 | N 1.32 | G 0.524
F21: I -0.454 | C 0.708 | W 1.64 | E -0.293 | Q -0.803 | H -0.264 | Y 1.06 | L -0.142 | M -0.083 | N -0.807 | A -0.089 | V -0.636
R24: A 2.11 | H 1.94 | C 2.83 | F 2.28 | E 1.99 | G 1.29 | D 1.68
D13: H 1.58 | W 1.58 | G 1.51 | A 1.95 | Y 1.22 | E 1.9 | V 1.64 | I 1.68 | N 1.88 | T 1.93 | K 1.82 | M 1.68 | F 1.41 | C 2.42 | P 1.6 | S 2 | L 1.68 | Q 1.73 | R 1.74
F12: T -0.58 | P -0.958 | Q -0.27 | M 0.11 | H -0.13 | Y 0.382 | G -0.303 | I -0.023 | R -0.751 | S -0.396 | C 1.66 | V -0.424 | E -0.877 | N -0.908 | A -0.113 | L 0.213 | K -0.237 | W 0.074
